Measured values as given in patent US20260207718A1, “METHODS FOR TREATING LATE ONSET POMPE DISEASE IN PEDIATRIC PATIENTS” (Amicus Therapeutics, Inc., priority 2022, published 2026).
Entries after “also recorded” stand apart in the source; their conditions may differ. Where two headings read alike, the source gives them in different places. Marks after values point to notes of the source that are not given here.

What was measured:
[1] = Case: pediatric atypical IOPD patient, PK of ATB200 and AT2221 after 1 year; type: in vivo, human
[2] = target: T1, CIMPR (Homo sapiens, UniProt P11717); assay: CIMPR affinity chromatography (bound vs unbound rhGAA by GAA activity); type: binding
T1 sequence (P11717 41-2491, species assumed): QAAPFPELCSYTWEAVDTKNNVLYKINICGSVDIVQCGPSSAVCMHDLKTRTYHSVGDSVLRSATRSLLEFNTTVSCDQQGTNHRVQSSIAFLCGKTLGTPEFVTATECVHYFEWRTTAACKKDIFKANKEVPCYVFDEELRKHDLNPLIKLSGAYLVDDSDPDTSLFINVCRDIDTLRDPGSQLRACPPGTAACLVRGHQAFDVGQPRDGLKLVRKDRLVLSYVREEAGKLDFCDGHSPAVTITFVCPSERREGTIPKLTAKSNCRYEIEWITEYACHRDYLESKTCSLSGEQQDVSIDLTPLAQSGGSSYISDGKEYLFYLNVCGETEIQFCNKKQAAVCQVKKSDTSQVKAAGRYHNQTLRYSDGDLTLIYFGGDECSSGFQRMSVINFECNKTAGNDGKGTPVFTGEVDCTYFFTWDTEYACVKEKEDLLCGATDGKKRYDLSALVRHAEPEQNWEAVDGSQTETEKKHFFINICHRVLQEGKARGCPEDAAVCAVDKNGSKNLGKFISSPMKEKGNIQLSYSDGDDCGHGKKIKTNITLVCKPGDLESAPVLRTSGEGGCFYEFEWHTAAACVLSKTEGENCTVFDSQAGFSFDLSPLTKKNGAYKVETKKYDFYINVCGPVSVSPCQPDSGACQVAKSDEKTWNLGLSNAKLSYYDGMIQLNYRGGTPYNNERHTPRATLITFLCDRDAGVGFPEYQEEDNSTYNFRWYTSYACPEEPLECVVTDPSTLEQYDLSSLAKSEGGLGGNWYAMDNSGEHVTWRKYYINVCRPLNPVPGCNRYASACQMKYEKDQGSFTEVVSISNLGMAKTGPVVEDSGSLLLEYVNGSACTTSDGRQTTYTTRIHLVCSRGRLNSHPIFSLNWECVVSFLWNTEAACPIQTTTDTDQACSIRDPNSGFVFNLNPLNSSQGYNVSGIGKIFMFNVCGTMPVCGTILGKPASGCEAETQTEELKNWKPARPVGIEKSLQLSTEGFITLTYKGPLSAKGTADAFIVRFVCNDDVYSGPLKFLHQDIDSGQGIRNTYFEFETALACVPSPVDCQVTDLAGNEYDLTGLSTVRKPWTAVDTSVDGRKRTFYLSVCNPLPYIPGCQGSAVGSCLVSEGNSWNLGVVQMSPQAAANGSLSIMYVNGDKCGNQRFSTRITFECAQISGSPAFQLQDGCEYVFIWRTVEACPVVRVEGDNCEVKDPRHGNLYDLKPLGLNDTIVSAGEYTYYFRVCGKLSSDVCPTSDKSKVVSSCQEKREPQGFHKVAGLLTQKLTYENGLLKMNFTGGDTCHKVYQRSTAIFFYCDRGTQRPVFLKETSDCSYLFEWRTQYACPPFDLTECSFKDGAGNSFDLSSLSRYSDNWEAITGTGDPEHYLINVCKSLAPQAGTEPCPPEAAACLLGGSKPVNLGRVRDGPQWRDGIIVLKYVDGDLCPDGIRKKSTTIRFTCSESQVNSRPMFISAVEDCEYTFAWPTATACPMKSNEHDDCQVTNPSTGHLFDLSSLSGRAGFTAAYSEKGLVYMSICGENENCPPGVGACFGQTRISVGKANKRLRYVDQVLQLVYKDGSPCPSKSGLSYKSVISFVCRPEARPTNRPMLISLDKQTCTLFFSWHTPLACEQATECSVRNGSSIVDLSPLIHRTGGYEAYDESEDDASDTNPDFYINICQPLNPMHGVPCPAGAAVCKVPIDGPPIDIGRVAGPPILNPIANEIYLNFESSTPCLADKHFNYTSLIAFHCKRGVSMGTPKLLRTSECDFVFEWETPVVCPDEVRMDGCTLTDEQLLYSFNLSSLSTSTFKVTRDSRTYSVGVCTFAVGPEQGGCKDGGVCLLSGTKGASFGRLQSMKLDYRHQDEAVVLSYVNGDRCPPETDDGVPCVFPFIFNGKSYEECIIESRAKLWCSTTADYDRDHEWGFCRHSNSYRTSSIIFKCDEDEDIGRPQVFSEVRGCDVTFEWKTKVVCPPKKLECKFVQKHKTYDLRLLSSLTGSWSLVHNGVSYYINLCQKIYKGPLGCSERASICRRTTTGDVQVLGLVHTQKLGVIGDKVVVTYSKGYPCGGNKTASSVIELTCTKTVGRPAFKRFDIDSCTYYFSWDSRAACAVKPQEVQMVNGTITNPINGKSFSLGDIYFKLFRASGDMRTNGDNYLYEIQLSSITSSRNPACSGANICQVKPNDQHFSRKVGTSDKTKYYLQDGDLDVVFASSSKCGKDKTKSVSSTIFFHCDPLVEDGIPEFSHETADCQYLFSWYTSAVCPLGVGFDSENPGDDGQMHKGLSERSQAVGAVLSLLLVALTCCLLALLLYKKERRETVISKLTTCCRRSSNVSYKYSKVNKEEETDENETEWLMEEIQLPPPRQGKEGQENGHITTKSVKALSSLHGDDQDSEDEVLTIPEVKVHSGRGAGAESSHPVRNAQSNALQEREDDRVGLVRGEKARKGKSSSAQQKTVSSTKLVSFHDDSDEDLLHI
Description: Multiple batches of the rhGAA according to the disclosure were produced in shake flasks and in perfusion bioreactors using CHO cell line GA-ATB200, the product of which is referred to as “ATB200.” Weak anion exchange (“WAX”) liquid chromatography was used to fractionate ATB200 rhGAA according to terminal phosphate and sialic acid. Elution profiles were generated by eluting the ERT with increasing amount of salt. The profiles were monitored by UV (A280 nm).
To evaluate the ability of the conventional rhGAAs in MYOZYME® and LUMIZYME® to interact with the CIMPR, the two conventional rhGAA preparations were injected onto a CIMPR affinity column (which binds rhGAA having M6P groups) and the flow through collected. The bound material was eluted with a free M6 gradient. Fractions were collected in 96-well plate and GAA activity assayed by 4MU-α-glucosidase substrate. The relative amounts of unbound (flow through) and bound (M6P eluted) rhGAA were determined based on GAA activity and reported as the fraction of total enzyme. […] Indeed, only 27% of the rhGAA in MYOZYME® and 22% of the rhGAA in LUMIZYME® contained M6P that can be productive to target it to the CIMPR on muscle cells.

[3] = ATB200-04 trial: population PK exposure matching of adolescents to adults; type: in vivo, human; design: AUC0-24, Mean / AUC0-24, Median / AUC0-24, P5 / AUC0-24, P95 / AUC0-24, Geo Mean: unit not given beside the values; conditions: for AUC0-24, Geo Mean / AUC0-24, Mean / AUC0-24, Median / AUC0-24, P5 / AUC0-24, P95: predicted
Description: The ATB200-04 trial seeks to evaluate the safety and tolerability of cipaglucosidase alfa/miglustat co-administration.
Subjects have scheduled PK assessments at Day 1, Week 26, and Week 52 for plasma total GAA protein and miglustat.
Population PK parameters include clearance (CL) and volume of distribution (V), estimated from total GAA protein concentrations and miglustat concentrations in plasma.
Methods for Exposure Matching. Pediatric PK data from both clinical trials and expanded access programs were used for exposure matching to adult PK data. […] The previous base population PK models from cipaglucosidase alfa-atga and miglustat were rerun with the updated dataset. To account for longitudinal changes in body size for pediatric patients, the time-varying body weight was used to estimate the effects of body size on PK parameters in the population PK models. The effect of age at baseline on clearance was also evaluated in the PK models. Individual AUC0-24 and Cmax of cipaglucosidase alfa and miglustat were predicted from the PK empirical Bayes estimates (EBEs). The time-varying body weight and baseline age in pediatrics were used in the exposure prediction. PK exposures (AUC0-24 and Cmax) were predicted for each PK visit during the study; Day 1-baseline, Week 26, and Week 52. Additionally, there were unscheduled PK visits for some subjects.
Results for Adolescent Subjects. […] The dose may have been adjusted at a later visit for exposure matching. It should be noted however, that in the early stage of the study, all subjects were started at 20 mg/kg to evaluate safety.

[4] = target: T1, CIMPR; assay: CIMPR plate binding assay
Description: In addition to having a greater percentage of rhGAA that can bind to the CIMPR, it is important to understand the quality of that interaction. LUMIZYME® and ATB200 receptor binding was determined using a CIMPR plate binding assay. Briefly, CIMPR-coated plates were used to capture GAA. Varying concentrations of rhGAA were applied to the immobilized receptor and unbound rhGAA was washed off. The amount of remaining rhGAA was determined by GAA activity. […] For LUMIZYME®, there is on average only 10% of molecules having a bis-phosphorylated N-glycan. In contrast, on average every rhGAA molecule in ATB200 has at least one bis-phosphorylated N-glycan.
N-glycan analysis via MALDI-TOF mass spectrometry confirmed that on average each ATB200 molecule contains at least one natural bis-M6P N-glycan structure.

[5] = Thermostability assay using SYPRO Orange; type: physicochemical
Description: The stability of ATB200 in acidic or neutral pH buffers was evaluated in a thermostability assay using SYPRO Orange, as the fluorescence of the dye increases when proteins denature. […] As summarized in Table 10, the addition of miglustat increased the melting temperature (Tm) of ATB200 by nearly 10° C.

[6] = tested on: normal and Pompe fibroblast cell lines; assay: Cellular uptake of rhGAA in fibroblasts; type: cell-based
Description: The relative cellular uptake of ATB200 and LUMIZYME® rhGAA were compared using normal and Pompe fibroblast cell lines. Comparisons involved 5-100 nM of ATB200 according to the disclosure with 10-500 nM conventional rhGAA product LUMIZYME®. After 16-hr incubation, external rhGAA was inactivated with TRIS base and cells were washed 3-times with PBS prior to harvest. Internalized GAA measured by 4MU-α-Glucoside hydrolysis and was graphed relative to total cellular protein and the results appear in FIGS. 11A-11C.
ATB200 was also shown to be efficiently internalized into cells. […] ATB200 saturates cellular receptors at about 20 nM, while about 250 nM of LUMIZYME® is needed to saturate cellular receptors.

[7] = tested on: Gaa KO mice; assay: Single fiber analysis (LAMP1/LC3) of muscle fibers from Gaa KO mice; type: in vivo
Description: FIG. 17 depicts co-immunofluorescent staining of LAMP1 (green) (see for example, “B”) and LC3 (red) (see, for example, “A”) in single fibers isolated from the white gastrocnemius of Gaa KO mice treated with a vehicle, alglucosidase alfa, or ATB200. “C” depicts clearance of autophagic debris and absence of enlarged lysosome. A minimum of 30 fibers were examined from each animal.
As a result, a significant portion of muscle fibers analyzed (36-60%) from ATB200-treated mice appeared normal or near-normal.

[8] = tested on: pediatric subjects with late-onset Pompe disease; assay: ATB200-04 trial: safety in pediatric subjects with LOPD; type: in vivo, human; conditions: ERT-experienced subject, Cohort 2
Description: This study includes subjects with Pompe disease except classic IOPD.
Safety assessments include monitoring of adverse events (AEs), clinical laboratory tests (chemistry, hematology, and urinalysis), physical examinations, vital signs, 12-lead electrocardiogram (ECGs), and detection of cipaglucosidase alfa antibodies.

[9] = adolescent Subject 2, 20 mg/kg, Week 52, 83.8 kg
[10] = adolescent Subject 3, 25 mg/kg, Week 52, 64.6 kg
[11] = adolescent Subject 4, 25 mg/kg, Week 64, 53.3 kg
[12] = adolescent Subject 5, 25 mg/kg, Week 52, 43.7 kg
[13] = adolescent Subject 6, 25 mg/kg, Week 52, 36.5 kg
[14] = adolescent Subject 7, 25 mg/kg, Week 52, 60.3 kg
[15] = adolescent Subject 8, 25 mg/kg, Week 72, 38.5 kg

Substance: ATB200: recombinant human acid α-glucosidase with high content of N-glycans bearing mono-M6P and bis-M6P, produced from GA-ATB200 CHO cell line
- ATB200 AUC ([1]; Adult (10th-90th percentile)): 1001 to 1924 µg·h/mL
- ATB200 Cmax ([1]; Adult (10th-90th percentile)): 223 to 363 µg/mL
- ATB200 AUC ([1]; Adult (median)): 1415 µg·h/mL
- ATB200 Cmax ([1]; Adult (median)): 294 µg/mL
- ATB200 AUC ([1]; patient with atypical IOPD, 12Y5M, 46.5 kg, ATB200 20 mg/kg + AT2221 195 mg biweekly for 1 year): 1257 µg·h/mL
- ATB200 Cmax ([1]; patient with atypical IOPD, 12Y5M, 20 mg/kg): 245 µg/mL
- rhGAA that bound to the CIMPR [2]: more than 70%
- rhGAA that bound to the CIMPR ([2]; listed as ATB200 rhGAA): ≥ 70%
- AUC0-24, geometric LSM Ratio adolescents to adults ([3]; 90% CI (81.96, 96.88)): 89.11
- Cmax, geometric LSM Ratio adolescents to adults ([3]; 90% CI (82.51, 104.69)): 92.94
- individual predicted AUC0-24 ([3]; adolescent Subject 1, 20 mg/kg, Week 52, 77.9 kg): 1396
- individual predicted AUC0-24 [3, 9]: 1315
- individual predicted Cmax [3, 9]: 277
- individual predicted AUC0-24 [3, 10]: 1318
- individual predicted Cmax [3, 10]: 305
- individual predicted AUC0-24 [3, 11]: 1472
- individual predicted Cmax [3, 11]: 294
- individual predicted AUC0-24 [3, 12]: 1175
- individual predicted Cmax [3, 12]: 240
- individual predicted AUC0-24 [3, 13]: 1047
- individual predicted Cmax [3, 13]: 222
- individual predicted AUC0-24 [3, 14]: 1269
- individual predicted Cmax [3, 14]: 273
- individual predicted AUC0-24 [3, 15]: 1138
- individual predicted Cmax [3, 15]: 229
- predicted AUC0-24 and Cmax for adolescents relative to adult 5th and 95th percentile range ([3]; adults N=100, adolescents N=8): well within the adult 5th and 95th percentile range
- AUC0-24, Geo Mean ([3]; Adolescents N=8): 1259
- AUC0-24, Mean ([3]; Adolescents N=8): 1266
- AUC0-24, Median ([3]; Adolescents N=8): 1292
- AUC0-24, P5 ([3]; Adolescents N=8): 1079
- AUC0-24, P95 ([3]; Adolescents N=8): 1446
- AUC0-24, Geo Mean ([3]; Adults N=100): 1413
- AUC0-24, Mean ([3]; Adults N=100): 1461
- AUC0-24, Median ([3]; Adults N=100): 1433
- AUC0-24, P5 ([3]; Adults N=100): 898
- AUC0-24, P95 ([3]; Adults N=100): 2162
- binding to CIMPR compared with LUMIZYME® ([4]; CIMPR plate binding assay, FIG. 10A): bound to CIMPR significantly better than LUMIZYME®
- Kd ([4]; M6P receptor plate binding assays): 2 to 4 nM
- Tm ([5]; pH 5.2): 67.3 °C
- Tm ([5]; pH 7.4): 56.2 °C
- increase of melting temperature (Tm) by addition of miglustat ([5]; pH 7.4): ~10 °C
- Tm ([5]; pH 7.4 + 10 μM miglustat): 61.6 °C
- Tm ([5]; pH 7.4 + 30 μM miglustat): 62.9 °C
- Tm ([5]; pH 7.4 + 100 μM miglustat): 66.0 °C
- concentration that saturates cellular receptors ([6]; 16-hr incubation): about 20 nM
- uptake efficiency constant (Kuptake) ([6]; 16-hr incubation, extrapolated, FIG. 11C): 2-3 nm
- internalization into normal and Pompe fibroblast cells ([6]; FIGS. 11A-11B): internalized to a greater degree than the conventional rhGAA product LUMIZYME®
- Fibers with Autophagy Buildup [7]: 40-64%*
- Fibers with Normal or Near-normal Appearance [7]: 36-60%
- Lysosome Enlargement ([7]; white gastrocnemius): dramatically decreased lysosome size; also recorded: Dramatic size
- investigator-assessed relatedness of anaphylaxis event (both episodes) [8]: definitely related
